# Test results as given in US7449553B2, “Antibody that binds ceramidase” (Takara Bio Inc., priority 1999, dated 2008).
# Entries after “also recorded” stand apart in the source; their conditions may differ.
# B1: ceramidase: isolated and purified neutral/alkaline ceramidase derived from a mouse liver, mature form SEQ ID NO: 14 (protein, listed as Mus sp.)
# chain: FSGYYIGVGRADCTGQVSDINLMGYGKNGQNARGLLTRLFSRAFILADPDGSNRMAFVSVELCMISQRLRLEVLKRLESKYGSLYRRDNVILSAIHTHSGPAGFFQYTLYILASEGFSNRTFQYIVSGIMKSIDIAHTNLKPGKIFINKGNVANVQINRSPSSYLLNPQSERARYSSNTDKEMLVLKLVDLNGEDLGLISWFAIHPVSMNNSNHFVNSDNMGYAAYLFEQEKNKGYLPGQGPFVAGFASSNLGDVSPNILGPHCVNTGESCDNDKSTCPNGGPSMCMASGPGQDMFESTHIIGRIIYQKAKELYASASQEVTGPVLAAHQWVNMTDVSVQLNATHTVKTCKPALGYSFAAGTIDGVSGLNITQGTTEGDPFWDTLRDQLLGKPSEEIVECQKPKPILLHSGELTIPHPWQPDIVDVQIVTVGSLAIAAIPGELTTMSGRRFREAIKKEFALYGMKDMTVVIAGLSNVYTHYITTYEEYQAQRYEAASTIYGPHTLSAYIQLFRDLAKAIATDTVANMSSGPEPPFFKNLIASLIPNIADRAPIGKHFGDVLQPAKPEYRVGEVVEVIFVGANPKNSAENQTHQTFLTVEKYEDSVADWQIMYNDASWETRFYWHKGILGLSNATIYWHIPDTAYPGIYRIRYFGHNRKQELLKPAVILAFEGISSPFEVVTT
# Experiment: Temperature stability of the ceramidase
# Format: physicochemical
# Conditions: 20 mM Tris-HCl pH 7.5, 0.1% polidocanol (Lubrol PX)
# Experimental: The activity of the ceramidase can be determined in accordance with the method described, for instance, in J. Biol. Chem., 275, 3462-3468 (2000). Concretely, a reaction mixture prepared by dissolving 550 pmol of 12-((N-(7-nitrobenz-2-oxa-1,3-diazol-4-yl)amino)dodecanoyl)sphingosine, hereinafter referred to as C12-NBD-ceramide [Anal. Biochem., 263, 183-188 (1998)], 1.0% (W/V) sodium cholate and a suitable amount of an enzyme (ceramidase) in 20 μl of 25 mM Tris-hydrochloric acid buffer (pH 7.5) is incubated at 37° C. for 30 minutes. The reaction mixture is incubated in a boiling water bath for 5 minutes, thereby stopping the reaction. The resulting reaction mixture is further evaporated to dryness under reduced pressure. The dried solid is dissolved in chloroform/methanol=2/1 (V/V), and developed by silica gel thin layer chromatography (developing solvent: chloroform/methanol/25% aqueous ammonia=90/20/0.5 (V/V/V)). Thereafter, the 12-(N-7-nitrobenz-2-oxa-1,3-diazol-4-yl)amino)dodecanoyl acid, hereinafter referred to as C12-NBD-fatty acid generated by the above-mentioned reaction is quantified by using CS-9300 Chromatoscanner (manufactured by Shimadzu Corporation) at an excitation wavelength of 475 nm and a fluorescent wavelength 525 nm. […]
molecule,measurement,value
B1,Activity after treatment at 37° C. for 24 hours,reduced activity not being observed; also recorded: does not show the reduced activity
same,"Activity after treatment at 60° C. for 1 hour, relative to activity before the treatment",about 30%
